Literature values as cited in patent US20180318303A1, “METHODS FOR TREATING MYELOPROLIFERATIVE DISORDERS” (Promedior, Inc., priority 2015, published 2018).

Conditions: in vivo

## SAP: naturally occurring serum protein in mammals composed of five identical subunits, non-covalently associated in a disk-like complex
  physiological half-life: twenty-four
